Results: US20120204282

How the values were obtained:
Experiment in all cases: cell_activity
[1] = tested on: ZFN 23947 (synthetic construct); conditions: Cel-I assay; as pair 22524/23947; pair also used for in vivo Q344X correction in mouse retina
[2] = tested on: ZFN 22529 (synthetic construct); conditions: Cel-I assay; as pair 23950/22529
[3] = tested on: ZFN 23974 (synthetic construct); conditions: Cel-I assay; as pair 23966/23974
[4] = tested on: ZFN 23966 (synthetic construct); conditions: Cel-I assay; as pair 23966/23974
[5] = tested on: ZFN 22524 (synthetic construct); conditions: Cel-I assay; as pair 22524/23947; pair also used for in vivo Q344X correction in mouse retina
[6] = tested on: ZFN 23950 (synthetic construct); conditions: Cel-I assay; as pair 23950/22529

## GTGACGATGAGGCCTCTGCTACCGTGTC (double strand) [RHO exon 5 site for 23947]
[1]
  activity: 11.5 % NHEJ

## GAGCCATGGCAGTTCTCCATGCTGGCCG (double strand) [RHO exon 1 site for 22529]
[2]
  activity: 8.7 % NHEJ

## ATGTCCAGGCTGCTGCCTCGGTCCCATT (double strand) [RHO intron 1 site for 23974]
[3]
  activity: 9.3 % NHEJ

## GGGGAGACAGGGCAAGGCTGGCAGAGAG (double strand) [RHO intron 1 site for 23966]
[4]
  activity: 9.3 % NHEJ

## CAGTGGGTTCTTGCCGCAGCAGATGGTG (double strand) [RHO exon 5 site for 22524]
[5]
  activity: 11.5 % NHEJ

## GCCAGGTAGTACTGTGGGTACTCGAAGG (double strand) [RHO exon 1 site for 23950]
[6]
  activity: 8.7 % NHEJ
